Measurements as given in article PMC11923092.

Assays:
[1] = SEC; analytical SEC without prior concentration adjustment; cysteine-containing proteins reduced with 0.5 mM TCEP before SEC
[2] = SEC; constructs with partial Aes^N fragments fused to MBP, 30 µM each; aggregate and monomer content
[3] = SEC; analytical SEC at 15 °C after dilution to 10 µM and 24 h at 15 °C in 50 mM Tris, 300 mM NaCl, pH 7; aggregate/monomer ratio from peak areas
[4] = SEC; 1P at an isolated protein concentration of 45 µM; monomer against aggregate
[5] = SEC; Superdex 200 10/300, 4 °C, 0.75 mL/min, assay buffer; protein as isolated; soluble aggregate at the void volume against the monomer
[6] = SEC; construct with a partial Aes^N fragment fused to MBP at 150 µM; aggregate content

**Q.** Which “monomeric fraction (SEC)” value [1] does the source give for GFP-Npu^N-H6 (27P) here?
**A.** Its value is “this precursor existed to only 43% as a monomer”.

**Q.** For 13P, MBP fusion of Aes^N aa62-120, which “aggregated fraction (SEC)” value [2] is on record?
**A.** Its value is “showed a significant aggregated fraction (53%)”.

**Q.** Which results are given for MBP-Ssp^N-H6 (25P)?
**A.** aggregated fraction (SEC) [1]: high-molecular weight aggregate fraction (ca. 66%); monomeric fraction (SEC) [1]: a monomeric fraction (ca. 34%)

**Q.** For MBP-Aes^N-H6 (1P), which “monomeric fraction (SEC)” value [3] is on record?
**A.** The value was 19% measured for the WT (1P).

**Q.** What about the “monomeric fraction (SEC)” value [4] of the same substance?
**A.** Its value is “at 45 µM and 135 µM only about 4% and no detectable monomeric species were present”.

**Q.** What about the “aggregated fraction (SEC)” value [5] of the same substance?
**A.** The value was “about 71% of the protein”.

**Q.** And the “monomeric fraction (SEC)” value [5]?
**A.** The value was “about 29%”.

**Q.** Which “aggregated fraction (SEC)” value [2] does the source give for 14P, MBP fusion of Aes^N aa69-120 here?
**A.** Its value is 9% at 30 µM and 15% at 150 µM.

**Q.** What about the “aggregated fraction (SEC)” value [6] of the same substance?
**A.** The value was 9% at 30 µM and 15% at 150 µM.
